Test results published in paper PMC5660149, “Oligomerization and ATP stimulate condensin-mediated DNA compaction” (Scientific Reports, 2017).

Molecular target: budding yeast condensin holoenzyme (heteropentamer of Smc2, Smc4, Brn1, Ycg1 and Ycs4) (budding yeast) (UniProt P38989)
Assay: SEC; Superose 6 10/300 gel filtration as the last step of purification after nickel-NTA and StrepTactin; self-association of the heteropentamer (monomer) into a multimer

- percent multimeric in the Streptactin-purified fraction: 30%
Substance: budding yeast condensin holoenzyme (heteropentamer of Smc2, Smc4, Brn1, Ycg1 and Ycs4), P38989 1-1170; Q12267 1-1418; P38170 1-754; Q06680 1-1035; Q06156 1-1176
